Results taken from the supplement of paper PMC10126150.
± gives the standard deviation of the averaged measurements.

What follows are sequences tested on ATP (assay: switch fluorescence ratio, 500 uM ATP over buffer (Cy3 cluster intensity, sum of 5 cycles each) (fold (ratio)); higher = stronger signal-on switching upon ATP binding; sequences stand for … in TCGTCGGCAGCGTCAGATGTGTATAAGAGACAGTTTTTTTTTTTTTTTTTTTTTTTTT…TC). Details: aptamer strand: ATP DNA aptamer (quencher-CACCTGGGGGAGTATTGCGGAGGAAGG + anchor), 100 nM annealed; ATP concentration: 500 uM.
Summary of the method: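 Between each of five buffer/ATP cycles, the flow-cell was stripped with NaOH and re-annealed. Each cycle imaged Cy3-labelled switching-strand clusters, annealed to 100 nM quencher-labelled ATP aptamer on a modified Illumina MiSeq flow-cell, first in selection buffer and then after 15 min with 500 uM ATP at 22 °C. The fluorescence ratio is summed target-cycle over summed buffer-cycle Cy3 intensity per cluster, averaged per switch-domain sequence, with clusters outside 100-1000 RFU excluded.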
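Further: ATP exposure 15 min at 22 °C before imaging.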

| Sequence | switch fluorescence ratio |
| --- | --- |
| GGTTGGCAGA | 0.99 ± 0.059 |
| GGTTGGGCGG | 1.01 ± 0.026 |
| GGTTGGGCTC | 1.001 ± 0.0099 |
| GGTTGGGGAG | 0.985 ± 0.019 |
| GGTTGGGGCA | 0.985 ± 0.049 |
| GGTTGGGGCT | 0.987 ± 0.039 |
| GGTTGGGGGA | 1.02 ± 0.024 |
| GGTTGGTTGT | 1.15 ± 0.21 |
| GGTTGTGGGC | 0.992 ± 0.019 |
| GGTTGTGGGT | 0.996 ± 0.015 |
| GGTTGTTCTG | 0.997 ± 0.015 |
| GGTTGTTTCT | 0.997 ± 0.0057 |
| GGTTTAAAAA | 0.969 ± 0.036 |
| GGTTTAATTG | 1.026 ± 0.0085 |
| GGTTTAGAGA | 1.02 ± 0.069 |
| GGTTTAGCCT | 1.04 ± 0.023 |
| GGTTTAGCTG | 0.984 ± 0.041 |
| GGTTTAGTTG | 0.9744 ± 0.0062 |
| GGTTTAGTTT | 0.99 ± 0.035 |
| GGTTTATATA | 1.006 ± 0.0018 |
| GGTTTATCAA | 1.0008 ± 0.00076 |
| GGTTTATCAG | 0.983 ± 0.021 |
| GGTTTATTAT | 1.02 ± 0.017 |
| GGTTTCAGCA | 1.01 ± 0.042 |
| GGTTTCCGGG | 1.01 ± 0.035 |

| Sequence | switch fluorescence ratio |
| --- | --- |
| GGTTTCCTGT | 1.01 ± 0.043 |
| GGTTTCGTTG | 1 ± 0.046 |
| GGTTTGAGAA | 1.018 ± 0.0031 |
| GGTTTGAGAG | 0.989 ± 0.048 |
| GGTTTGATGC | 0.962 ± 0.055 |
| GGTTTGCACG | 0.992 ± 0.042 |
| GGTTTGGATC | 1.02 ± 0.018 |
| GGTTTGGTCG | 1.01 ± 0.037 |
| GGTTTGGTGG | 0.992 ± 0.028 |
| GGTTTGGTTC | 0.957 ± 0.083 |
| GGTTTGGTTG | 1.003 ± 0.008 |
| GGTTTGGTTT | 1 ± 0.021 |
| GGTTTGTAGG | 0.954 ± 0.02 |
| GGTTTGTGCT | 0.94 ± 0.051 |
| GGTTTGTGGT | 1.03 ± 0.062 |
| GGTTTGTTTG | 0.999 ± 0.025 |
| GGTTTTCACC | 0.9866 ± 0.0065 |
| GGTTTTCGAA | 1.01 ± 0.042 |
| GGTTTTCGGG | 0.969 ± 0.035 |
| GGTTTTCTGT | 0.997 ± 0.016 |
| GGTTTTGATT | 0.998 ± 0.0089 |
| GGTTTTGGGA | 0.998 ± 0.019 |
| GGTTTTGTGC | 1.03 ± 0.091 |
| GGTTTTTCGA | 0.983 ± 0.034 |
| GGTTTTTCGC | 1.028 ± 0.0029 |

| Sequence | switch fluorescence ratio |
| --- | --- |
| GGTTTTTGGG | 0.994 ± 0.033 |
| GGTTTTTGGT | 1 ± 0.032 |
| GGTTTTTGTT | 0.991 ± 0.039 |
| GGTTTTTTTG | 1.02 ± 0.037 |
| GTAAAAGCTC | 1.02 ± 0.018 |
| GTAAAAGGGT | 1 ± 0.02 |
| GTAAAAGTCG | 1.03 ± 0.015 |
| GTAAAATTGG | 0.998 ± 0.025 |
| GTAAGAAGGA | 1.02 ± 0.07 |
| GTAAGAGCGG | 0.9983 ± 0.0065 |
| GTAAGCAAAG | 1.2 ± 0.081 |
| GTAAGGAGGG | 0.981 ± 0.032 |
| GTAAGGGAAT | 0.9718 ± 0.0065 |
| GTAAGGGATT | 1.025 ± 0.0068 |
| GTAAGGGGGA | 0.984 ± 0.031 |
| GTAAGGGGGC | 0.984 ± 0.011 |
| GTAAGTACTG | 1.36 ± 0.015 |
| GTAATAGGAG | 1.02 ± 0.039 |
| GTAATCGATT | 1.07 ± 0.022 |
| GTAATGATCT | 1.06 ± 0.036 |
| GTAATTAATT | 0.978 ± 0.025 |
| GTAATTGCTG | 1.01 ± 0.059 |
| GTAATTGGGT | 0.986 ± 0.015 |
| GTAATTTCGT | 0.99733 ± 0.0004 |
| GTACCATCTG | 0.976 ± 0.02 |

| Sequence | switch fluorescence ratio |
| --- | --- |
| GTACCCTCAA | 1.03 ± 0.024 |
| GTACCCTGGA | 1.03 ± 0.03 |
| GTACCTAACT | 1.2 ± 0.025 |
| GTACGAGTCC | 1.01 ± 0.015 |
| GTACGGGGGA | 1.002 ± 0.0056 |
| GTACTACCTA | 1.14 ± 0.022 |
| GTACTATTAT | 1.038 ± 0.0052 |
| GTACTATTTT | 1.036 ± 0.0037 |
| GTACTTCATC | 1.06 ± 0.058 |
| GTAGAATGTG | 0.983 ± 0.03 |
| GTAGAGAGGG | 0.992 ± 0.053 |
| GTAGATTGG | 0.9872 ± 0.0035 |
| GTAGCAGGCG | 1.13 ± 0.058 |
| GTAGCATATT | 1.49 ± 0.011 |
| GTAGCGATAG | 4.13 ± 2.2 |
| GTAGCGCGTC | 1.03 ± 0.026 |
| GTAGCTGGTG | 1.02 ± 0.018 |
| GTAGCTTATC | 2.08 ± 0.067 |
| GTAGGAACCT | 1.8 ± 0.12 |
| GTAGGGGATA | 1.02 ± 0.026 |
| GTAGGGGATC | 1.04 ± 0.058 |
| GTAGGTAACG | 0.9867 ± 0.0079 |
| GTAGGTATGG | 0.969 ± 0.015 |
| GTAGTAGCCA | 1.01 ± 0.033 |
| GTAGTAGGTG | 1 ± 0.033 |
